Like-named read-outs stand apart in the source and are kept apart here.
T1: Activin A (UniProt P08476 311-426)
T1 sequence (looked up): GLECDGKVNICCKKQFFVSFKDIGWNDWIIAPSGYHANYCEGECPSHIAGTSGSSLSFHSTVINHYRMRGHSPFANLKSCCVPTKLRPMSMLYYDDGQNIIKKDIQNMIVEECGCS

T2: GDF8 (UniProt O14793 267-375)
T2 construct: also called myostatin; Growth and Differentiation Factor-8
T2 sequence (looked up): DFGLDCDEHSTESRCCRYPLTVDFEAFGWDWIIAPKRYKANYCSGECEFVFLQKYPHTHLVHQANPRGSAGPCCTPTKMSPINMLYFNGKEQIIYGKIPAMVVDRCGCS

T3: Activin B (UniProt P09529 293-407)
T3 sequence (looked up): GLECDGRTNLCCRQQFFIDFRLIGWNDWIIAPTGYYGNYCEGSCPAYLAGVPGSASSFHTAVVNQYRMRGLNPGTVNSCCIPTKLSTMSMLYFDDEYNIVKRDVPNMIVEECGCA

B1: GDF11 (ligand, UniProt O95390 299-407, looked up)
chain: NLGLDCDEHSSESRCCRYPLTVDFEAFGWDWIIAPKRYKANYCSGQCEYMFMQKYPHTHLVQQANPRGSAGPCCTPTKMSPINMLYFNDKQQIIYGKIPGMVVDRCGCS
notes: also called Growth and Differentiation Factor-11; BMP11
B2: ActRIIB(L79 25-131)-hFc (Fc fusion)
chain: ETRECIYYNANWELERTNQSGLERCEGEQDKRLHCYASWRNSSGTIELVKKGCWLDDFNCYDRQECVATEENPQVYFCCCEGNFCNERFTHLPEAGGPEVTYEPPPTGGG
notes: also called ActRIIB(25-131)-hFc; not shown: human Fc domain (hFc)

Columns and labels:
GDF11 [1] = target: B1; assay: cell-based or functional assay
Activin A [2] = target: T1, Activin A; assay: cell-based or functional assay
GDF11 [3] = target: B1; assay: Biacore; ActRIIB-Fc captured by anti-hFc antibody, ligand injected
Protocol: (§1) Binding of certain ActRIIB-Fc proteins and GDF Traps to ligands was tested in a BiaCore™ assay.
(§2) The ActRIIB-Fc variants or wild-type protein were captured onto the system using an anti-hFc antibody. Ligands were injected and flowed over the captured receptor proteins.

Activin A [4] = target: T1, Activin A; assay: as above
Protocol: as §1, §2

GDF8 = target: T2, GDF8; assay: as above
Protocol: as §1, §2

ActRIIB(L79 25-131)-hFc = target: B2; assay: Biacore, steady-state affinity fit
Protocol: (§3) The affinity of GDF Traps and other ActRIIB-hFc proteins for several ligands was evaluated in vitro with a Biacore™ instrument. Kd values were obtained by steady-state affinity fit due to the very rapid association and dissociation of the complex, which prevented accurate determination of kₒₙ and koff.

GDF11 [5] = target: B1; assay: Biacore, steady-state affinity fit
Protocol: as §3

Activin B = target: T3, Activin B; assay: Biacore, steady-state affinity fit
Protocol: as §3

Activin A [6] = target: T1, Activin A; assay: Biacore, steady-state affinity fit
Protocol: as §3

IC50 (ng/mL), A-204 reporter gene assay, conditioned media (GDF11 [1]) [ng/mL] | IC50 (ng/mL), A-204 reporter gene assay, conditioned media (Activin A [2]) [ng/mL] | Kd (Activin A [4]) [pM] | koff (Activin A [4]) [s⁻¹] | kon (Activin A [4]) [M⁻¹ s⁻¹] | Kd (GDF8) [pM] | koff (GDF8) [s⁻¹] | Binder | further results
87 | 32 |  |  |  |  |  | ActRIIB(20-132)-hFc (Fc fusion, not shown: a dimerising Fc or GST) GRGEAETRECIYYNANWELERTNQSGLERCEGEQDKRLHCYASWRNSSGTIELVKKGCWLDDFNCYDRQECVATEENPQVYFCCCEGNFCNERFTHLPEAGGPEVTYEPPPTAGGG | 
 |  | 104 | 0.000346 | 3.34e+06 |  |  | ActRIIB(A24N 20-134)-hFc (Fc fusion, also called the A24N variant; not shown: human Fc domain (hFc)) GRGENETRECIYYNANWELERTNQSGLERCEGEQDKRLHCYASWRNSSGTIELVKKGCWLDDFNCYDRQECVATEENPQVYFCCCEGNFCNERFTHLPEAGGPEVTYEPPPTAPTGGG | Kd (GDF11 [3]): 51.9 pM; koff (GDF11 [3]): 6.35e-05 s⁻¹
 |  |  |  |  | 71.8 | 2.03e-05 | ActRIIB(K74A 20-134)-hFc (Fc fusion, not shown: human Fc domain (hFc)) GRGEAETRECIYYNANWELERTNQSGLERCEGEQDKRLHCYASWRNSSGTIELVAKGCWLDDFNCYDRQECVATEENPQVYFCCCEGNFCNERFTHLPEAGGPEVTYEPPPTAPTGGG | 
 |  | 47.6 | 0.000325 | 6.82e+06 | 210 | 4.71e-05 | ActRIIB(R64K 20-134)-hFc (Fc fusion, not shown: human Fc domain (hFc)) GRGEAETRECIYYNANWELERTNQSGLERCEGEQDKRLHCYASWKNSSGTIELVKKGCWLDDFNCYDRQECVATEENPQVYFCCCEGNFCNERFTHLPEAGGPEVTYEPPPTAPTGGG | Kd (GDF11 [3]): 35.6 pM; koff (GDF11 [3]): 2.41e-05 s⁻¹
 |  | 83.1 | 0.000417 | 5.02e+06 | 1670 | 0.00018 | ActRIIB(P129S, P130R 20-134)-hFc (Fc fusion, kept as two molecules; not shown: human Fc domain (hFc)) GRGEAETRECIYYNANWELERTNQSGLERCEGEQDKRLHCYASWRNSSGTIELVKKGCWLDDFNCYDRQECVATEENPQVYFCCCEGNFCNERFTHLPEAGGPEVTYEPSRTAPTGGG | 
 |  |  |  |  |  |  | B1 | Kd (ActRIIB(L79 25-131)-hFc): 31 pM
183 | 201 |  |  |  |  |  | ActRIIB(20-131)-hFc (Fc fusion, not shown: a dimerising Fc or GST) GRGEAETRECIYYNANWELERTNQSGLERCEGEQDKRLHCYASWRNSSGTIELVKKGCWLDDFNCYDRQECVATEENPQVYFCCCEGNFCNERFTHLPEAGGPEVTYEPPPTGGG | IC50 (ng/mL), A-204 reporter gene assay, conditioned media (GDF11 [1]; record 2): 120 ng/mL; IC50 (ng/mL), A-204 reporter gene assay, conditioned media (Activin A [2]; record 2): 44 ng/mL
69 | 105 |  |  |  |  |  | ActRIIB(24-131)-hFc (Fc fusion, not shown: a dimerising Fc or GST) AETRECIYYNANWELERTNQSGLERCEGEQDKRLHCYASWRNSSGTIELVKKGCWLDDFNCYDRQECVATEENPQVYFCCCEGNFCNERFTHLPEAGGPEVTYEPPPTGGG | 
121 | 325 |  |  |  |  |  | ActRIIB(21-131)-hFc (Fc fusion, not shown: a dimerising Fc or GST) RGEAETRECIYYNANWELERTNQSGLERCEGEQDKRLHCYASWRNSSGTIELVKKGCWLDDFNCYDRQECVATEENPQVYFCCCEGNFCNERFTHLPEAGGPEVTYEPPPTGGG | 
 |  | 84.1 | 0.000628 | 7.46e+06 | 2150 | 0.000209 | ActRIIB(R64K 20-129)-hFc (Fc fusion, not shown: human Fc domain (hFc)) GRGEAETRECIYYNANWELERTNQSGLERCEGEQDKRLHCYASWKNSSGTIELVKKGCWLDDFNCYDRQECVATEENPQVYFCCCEGNFCNERFTHLPEAGGPEVTYEPPGGG | 
71 | 100 |  |  |  |  |  | ActRIIB(22-131)-hFc (Fc fusion, not shown: a dimerising Fc or GST) GEAETRECIYYNANWELERTNQSGLERCEGEQDKRLHCYASWRNSSGTIELVKKGCWLDDFNCYDRQECVATEENPQVYFCCCEGNFCNERFTHLPEAGGPEVTYEPPPTGGG | 
45 | 22 | 26.8 | 0.000159 | 5.94e+06 | 93.5 | 3.45e-05 | ActRIIB(20-134)-hFc (Fc fusion) GRGEAETRECIYYNANWELERTNQSGLERCEGEQDKRLHCYASWRNSSGTIELVKKGCWLDDFNCYDRQECVATEENPQVYFCCCEGNFCNERFTHLPEAGGPEVTYEPPPTAPTGGGTHTCPPCPAPELLGGPSVFLFPPKPKDTLMISRTPEVTCVVVDVSHEDPEVKFNWYVDGVEVHNAKTKPREEQYNSTYRVVSVLTVLHQDWLNGKEYKCKVSNKALPVPIEKTISKAKGQPREPQVYTLPPSREEMTKNQVSLTCLVKGFYPSDIAVEWESNGQPENNYKTTPPVLDSDGSFFLYSKLTVDKSRWQQGNVFSCSVMHEALHNHYTQKSLSLSPGK | Kd (GDF11 [3]): 84.2 pM; koff (GDF11 [3]): 0.000113 s⁻¹; Kd (GDF11 [5]): 36 pM; Kd (Activin B): 12 pM; Kd (Activin A [6]): 16 pM
60 | 43 |  |  |  |  |  | ActRIIB(23-131)-hFc (Fc fusion, not shown: a dimerising Fc or GST) EAETRECIYYNANWELERTNQSGLERCEGEQDKRLHCYASWRNSSGTIELVKKGCWLDDFNCYDRQECVATEENPQVYFCCCEGNFCNERFTHLPEAGGPEVTYEPPPTGGG | 
 |  |  |  |  |  |  | B2 | Kd (Activin B): 12 pM; Kd (Activin A [6]): 18 pM
130 | 158 |  |  |  |  |  | ActRIIB(20-128)-hFc (Fc fusion, not shown: a dimerising Fc or GST) GRGEAETRECIYYNANWELERTNQSGLERCEGEQDKRLHCYASWRNSSGTIELVKKGCWLDDFNCYDRQECVATEENPQVYFCCCEGNFCNERFTHLPEAGGPEVTYEPGGG | 
